The results in this text go back to patent publication US20050064518A1 (PURDUE PHARMA L P, published 2005).

B1: monoclonal antibody 117.1 (antibody, V domains shown)
VH: QVTLKESGPGILQPSQTLSLTCSFSGFSLSTPGMGVGWIRQPSGKGLEWLAHIWWDDFKRDNPALKSRLTISKDTSSSQVFLKIASVDTADTATYYCVRVDGNFLSWYFDVWGAGTTVTVSS
VL: DAVMTQTPLSLPVSLGDQASISCRSSQSLVHSNGNTYLHWYLQKPGQSPKLLIYKVSNRFSGVPDRFSGSGSGTDFTLRISRVEAEDLGVYFCSQSRYVPWTFGGGTKLEIK
notes: Murine hybridoma antibody
B2: monoclonal antibody 368.1 (antibody, V domains shown)
VH: EVQLQQSGPELVRTGASVKISCKASGYSFTGFYMHWVKQSLGKSLEWIGYVSCYTGATTYTQKFKGKATFTVDTSSSTAYMQLNSLTSEDSAVYYCAREGDYYSMDFWGQGTSVTVSS
VL: DVVMTQTPLSLPVSLGDQASISCRSSQSLERTNGNTYLHWYLQKPGQSPKLLIYKVSSRFSGVPDRFSGSGSGTDFTLKISRVEAEDLGIYFCSQTTHGPPTCGGGTKLEIK
notes: Murine hybridoma antibody
B3: monoclonal antibody 501.1 (antibody, V domains shown)
VH: QIQLVQSGPELKKPGETVQISCKASGYIFTDYGMNWVKQAPGKGLKWMGCINTYTGETIYSDDFRGRFAISLETSASTAFIQINNLKNEDAATYFCARGNYRDAIDYWGQGTSVTVSS
VL: DIKMTQSPSSIYASLGERVTITCKASQDIKSYLSWYQQKPWKSPKTLIYYATTLADGVPSRFSGSGSGQDYSLIINSLESDDIATYFCLHHDESPFTFGSGTKLEI
notes: Murine hybridoma antibody

The term Kd denotes the constant that tells how readily two partners part at equilibrium.

The first test addresses T1, O772P 3-repeat recombinant protein (human).
T1 construct: Repeats are residues 14-452 of the entry
T1 chain: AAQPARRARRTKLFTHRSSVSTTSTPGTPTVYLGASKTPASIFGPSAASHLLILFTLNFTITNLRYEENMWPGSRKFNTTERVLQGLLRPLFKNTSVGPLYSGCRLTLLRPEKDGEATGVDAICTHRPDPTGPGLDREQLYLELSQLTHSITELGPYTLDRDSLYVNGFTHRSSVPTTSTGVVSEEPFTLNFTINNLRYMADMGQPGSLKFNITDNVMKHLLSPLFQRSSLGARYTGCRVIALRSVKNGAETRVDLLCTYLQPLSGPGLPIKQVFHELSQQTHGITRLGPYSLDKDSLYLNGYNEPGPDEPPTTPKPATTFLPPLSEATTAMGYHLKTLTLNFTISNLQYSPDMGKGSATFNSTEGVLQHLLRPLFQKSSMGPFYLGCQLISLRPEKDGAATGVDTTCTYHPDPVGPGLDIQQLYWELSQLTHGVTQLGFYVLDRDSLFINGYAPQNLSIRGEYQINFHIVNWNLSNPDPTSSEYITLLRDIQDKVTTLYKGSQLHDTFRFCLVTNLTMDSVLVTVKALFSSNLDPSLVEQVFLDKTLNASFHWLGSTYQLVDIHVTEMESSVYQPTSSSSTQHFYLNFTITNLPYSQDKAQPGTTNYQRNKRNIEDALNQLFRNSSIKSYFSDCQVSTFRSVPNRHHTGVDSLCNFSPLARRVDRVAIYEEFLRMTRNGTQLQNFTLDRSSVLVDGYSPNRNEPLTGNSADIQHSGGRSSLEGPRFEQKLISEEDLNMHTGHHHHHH
The test is described as follows: BIAcore SPR, O772P 3-repeat immobilized, mAb injected. On the procedure: A […] BIAcore biosensor chip was docked into the BIAcore X instrument and activated with 55 μl of 1:1 NHS/EDC at room temperature. O772P 3-repeat region protein and BSA at 10 μg/ml in 0.05 M acetate buffer, pH 4.5, were immobilized onto the flow cell (FC) 1 and FC2 of the activated chip, respectively, at a flow rate of 5 μl/min to achieve a resonance response of 1000-2000 RU. The chip was then blocked by injection of 55 μl of ethanolamine-HCl, pH 8.5, and followed with washing 5 times with 50 mM NaOH-1 M NaCl. To measure the binding of anti-0722P mAbs to the O772P 3-repeat region immobilized to the chip, 30 μl of anti-0722P mAbs at varying concentrations in BIAcore running buffer (HBS-EP, Cat. #1001-080, BIAcore, Piscataway, N.J.) were injected over the sensor surface at a flow rate of 5 μl/min. Following completion of the injection phase, dissociation was monitored in BIAcore running buffer at the same flow rate for 360 seconds. The surface was regenerated between injections using 30 μl of 50 mM NaOH-1 M NaCl. Individual sensorgrams were analyzed using BIAevaluation.
Background: In SPR one partner is held on a chip, and binding of the other changes the refractive index at the surface.
Regarding B1, the dissociation constant (Kd) turned out to be 12 nM.

As to B2, the Kd was determined as 0.7 nM.

As for B3, the equilibrium dissociation constant (Kd) turned out to be 70 nM.

The next test has as its target T2, O772P 3-repeat TM on transfected NIH/3T3 cells (human).
T2 construct: also called NIH/3T3 O772P 3-repeat
T2 chain: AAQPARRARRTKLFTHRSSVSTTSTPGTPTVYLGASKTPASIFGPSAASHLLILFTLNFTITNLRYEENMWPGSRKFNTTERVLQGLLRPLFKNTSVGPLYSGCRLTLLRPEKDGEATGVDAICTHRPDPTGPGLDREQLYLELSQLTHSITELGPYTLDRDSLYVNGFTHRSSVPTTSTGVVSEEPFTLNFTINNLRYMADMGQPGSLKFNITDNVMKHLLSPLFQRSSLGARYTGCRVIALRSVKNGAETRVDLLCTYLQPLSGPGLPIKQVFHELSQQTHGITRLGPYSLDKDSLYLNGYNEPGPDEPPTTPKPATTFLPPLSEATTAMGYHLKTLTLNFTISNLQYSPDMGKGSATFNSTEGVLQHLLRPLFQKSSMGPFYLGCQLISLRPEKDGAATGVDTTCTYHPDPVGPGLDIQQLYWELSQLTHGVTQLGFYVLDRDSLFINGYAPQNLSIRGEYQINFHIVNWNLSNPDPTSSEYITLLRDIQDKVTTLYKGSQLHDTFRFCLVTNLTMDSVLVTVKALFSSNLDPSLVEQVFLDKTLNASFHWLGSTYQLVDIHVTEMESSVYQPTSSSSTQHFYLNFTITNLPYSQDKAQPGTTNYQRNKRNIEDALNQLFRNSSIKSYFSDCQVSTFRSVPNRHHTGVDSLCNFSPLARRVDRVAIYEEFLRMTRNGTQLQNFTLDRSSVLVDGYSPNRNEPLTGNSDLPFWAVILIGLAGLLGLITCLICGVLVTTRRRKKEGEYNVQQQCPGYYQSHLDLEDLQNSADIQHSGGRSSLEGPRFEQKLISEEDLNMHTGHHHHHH
The test is described as follows: flow cytometry, NIH/3T3 cells expressing O772P 3-repeat TM; Ab 0.5 µg/ml. The method, then:
Cells (OVCAR-3 (ATCC Accession No. HTB-161), SK-OV3 (ATCC Accession No. HTB-77), NIH/3T3 (ATCC Accession No. CRL-1658), and NIH/3T3 cells transfected with a sequence that expresses O772P 3-repeat protein (SEQ ID NO:2)) were removed from culture plates by digestion with trypsin (0.25%). The cells were counted and viability was assessed by trypan blue (0.2%) exclusion. Cells were then centrifuged (500×g, 5 min) and resuspended in FACS buffer (1×DPBS containing 1% BSA and 0.1% sodium azide) to a concentration between 5-10×10⁷ cells/ml. Cells were then distributed at a volume of 100 μL/well into 96-well round bottom plates and centrifuged at 500×g for 3 minutes. Antibody supernatant was removed by aspiration, and 50 μl hybridoma supernatants diluted to 1 μg/ml and 0.5 μg/μl in FACS buffer and was added to each well containing cells. Murine IgG1 kappa (Sigma, St. Louis, Mo.) (either 2.0, 1.0, 0.5, 0.1 μg/μl) was included as a negative control and OC125 and M11 (DAKO Corp, Carpinteria, Calif.) were included as positive controls. Plates were incubated for 30 minutes at 4° C. with rocking. Cells were subsequently washed 2 times with FACS buffer (200 μl/well), with centrifugation and buffer aspiration following each wash. Goat anti-mouse IgG (Fc)-biotin (Sigma, St. Louis, Mo.) was diluted 1:1000 in FACS buffer and 50 μl was added to each well containing cells. Plates were incubated 30 minutes at 4° C. with rocking. Cells were then washed with FACS buffer as above. Streptavidin-Alexa-Four 488 (Molecular Probes, Eugene, Oreg.) was diluted 1:1000 into FACS buffer and 50 μl was added to each well containing cells. Plates were then incubated 30 minutes at 4° C. with […]. Cells were then washed with FACS buffer, as above. Cells were then resuspended in 1 ml of FACS buffer and transferred to Falcon 2052 tubes and analyzed on a Becton-Dickinson Immunocytometry Systems FACSCalibur flow cytometer (San Jose, Calif.).
(A flow cytometer gives signals particle by particle.)
Regarding B1, the “% positive cells” value came out at 63%.

Take B2: the “% positive cells” value amounted to 75%.

For B3, the “% positive cells” value was 85%.
